A word on the Kd: it is a measure of binding affinity in units of concentration. A high value points to weaker binding.

Among the data in patent US20260345742 (published 2026) are Kd values, retold here.

Ends that are not written are not given here.

The target of experiment [1] is T1, human ACE2 (human, UniProt Q9BYF1). Nature of the experiment: SPR, 37C.
In experiment [2] the target is T1, human ACE2. Nature of the experiment: SPR, 37C. The source holds these as a separate data set.
Experiment [3] addresses T1, human ACE2. As to the kind of experiment: SPR.
In experiment [4] the target is T1, human ACE2. As to the kind of experiment: SPR; given as Ka.

T1 sequence (Q9BYF1 18-740): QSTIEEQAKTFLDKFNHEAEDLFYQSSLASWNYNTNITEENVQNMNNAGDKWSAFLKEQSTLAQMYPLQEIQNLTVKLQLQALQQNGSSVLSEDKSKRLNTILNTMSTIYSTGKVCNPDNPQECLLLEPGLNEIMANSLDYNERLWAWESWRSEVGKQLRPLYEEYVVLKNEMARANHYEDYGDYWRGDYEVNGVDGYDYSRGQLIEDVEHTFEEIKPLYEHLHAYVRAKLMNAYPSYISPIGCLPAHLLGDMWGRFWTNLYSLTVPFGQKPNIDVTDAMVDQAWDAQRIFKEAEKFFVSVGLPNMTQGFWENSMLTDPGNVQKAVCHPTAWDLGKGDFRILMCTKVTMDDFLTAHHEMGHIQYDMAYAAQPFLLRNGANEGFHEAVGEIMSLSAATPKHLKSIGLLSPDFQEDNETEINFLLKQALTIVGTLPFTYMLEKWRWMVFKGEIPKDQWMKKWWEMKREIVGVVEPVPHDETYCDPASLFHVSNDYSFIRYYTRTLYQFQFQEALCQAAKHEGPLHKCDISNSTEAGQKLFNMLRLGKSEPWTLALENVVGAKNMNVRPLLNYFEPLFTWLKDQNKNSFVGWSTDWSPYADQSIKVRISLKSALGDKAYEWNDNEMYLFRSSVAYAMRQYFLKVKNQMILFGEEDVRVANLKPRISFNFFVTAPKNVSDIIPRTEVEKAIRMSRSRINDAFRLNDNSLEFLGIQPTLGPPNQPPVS

On to FPIPLPYYWLYRALIKRIQALIPKGGRLLPQLVYRLVLRYS (also: biotinylated (site not given here)) [B-YL (biotinylated)], for which the Kd with human ACE2 [1] and with human ACE2 [2] was 4.37 µM in each case.

Regarding FPIPLPYCWLCRALIKRIQAMIPKGGRMLPQLVCRLVLRCS [Super Mini-B (SMB)], the dissociation constant Kd with human ACE2 [3] is 0.00987 µM; with human ACE2 [4], 0.0099 µM.
